Where “and” joins values, the source holds several entries; their conditions need not be identical. Equal entries are not always repeated.
Assays:
[1] = molecular target: mix of HLA-A*02/SimPep tetramers (peptides SEQ ID NO: 51 to 59); assay: yeast display, SimPep tetramer mix, 10 nM each
[2] = molecular target: mix of HLA-A*02/SimPep tetramers (peptides SEQ ID NO: 51 to 59); assay: yeast display, flow cytometry; 10 nM PRAME-004 monomer (x), SimPep tetramer mix 10 nM each (y)

B1: stabilized scTCR R11P3D3SD (TCR)
chain: ILNVEQSPQSLHVQEGDSTNFTCSFPSSNFYNLHWYRKETAKSPEFLFYMTSNGDEKKKGRISATLNTKEGYSYLYITDSQPEDSATYLCALYNNNDMRFGAGTRLTVKPGGGGSGGGGSGGGGSGGGGSGGGGSGVIQSPRHLVTEMGQEVTLRCKPISGHNSLFWYRETPMQGLELLIYFNNNEPIDDSGMPEDRFSAKMPNASFSTLKIQPSEPRDSAVYFCASSPGSTDTQYFGPGTRLTVL
**Q.** How did the yeast cells stained positive [1] turn out when B1 was run?
**A.** 3.3% and 2.5%

**Q.** And the % cells, upper left quadrant (monomer-, SimPep tetramers+) [2]?
**A.** 3%

**Q.** What about the % cells, upper right quadrant (monomer+, SimPep tetramers+) [2] of the same binder?
**A.** 0.8%
